Source: patent US20220127355A1 (INTEGRAL MOLECULAR, published 2022)

T1: Claudin 9 (UniProt O95484 1-217)
T1 construct: Octet KD values: intact claudin protein embedded in virus-like particles (lipoparticles); also called CLDN9
T1 sequence (looked up): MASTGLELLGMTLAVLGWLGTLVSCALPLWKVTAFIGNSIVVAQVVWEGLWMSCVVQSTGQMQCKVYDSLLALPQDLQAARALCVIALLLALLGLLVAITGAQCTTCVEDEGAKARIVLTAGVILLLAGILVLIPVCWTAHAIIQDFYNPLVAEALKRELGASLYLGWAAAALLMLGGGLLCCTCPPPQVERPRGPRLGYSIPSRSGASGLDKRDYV

T2: Claudin 6 (human) (human, UniProt P56747 1-220)
T2 construct: Expressed on transfected HEK-293T cells or naturally on PA-1 cells for flow cytometry; For the Octet KD values it was the intact protein embedded in virus-like particles (lipoparticles); also called hsCLDN6; CLDN6
T2 chain: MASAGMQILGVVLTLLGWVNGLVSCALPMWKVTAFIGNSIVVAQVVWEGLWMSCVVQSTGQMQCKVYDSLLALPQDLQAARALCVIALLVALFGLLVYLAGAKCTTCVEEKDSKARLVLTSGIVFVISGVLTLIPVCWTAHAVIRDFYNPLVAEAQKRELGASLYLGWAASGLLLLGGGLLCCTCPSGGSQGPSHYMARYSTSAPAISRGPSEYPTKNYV


What follows are binders tested against T1, Claudin 9 (assay: biosensor (Forte Octet), intact claudin in virus-like particles (lipoparticles)).
Method: Affinity of various antibodies against CLDN6 as compared to CLDN9, CLDN3, and CLDN4 was measured using a biosensor. Biosensor affinity measurement of the various antibodies against the proteins was determined using a Forte Octet, which was used for biosensor measurements, using intact claudin proteins embedded in virus-like particles (lipoparticles). The KD for different antibodies is shown below.

Binder	Kd [nM]
IM172 (antibody, V domains shown, Detected with anti-human IgG Fc secondary) VH: AVTLDESGGGLQTPGGALSLVCKGSGFSISSYTMQWVRQAPGKGLEWVAGIYSGSRTYYGAAVQGRATISRDNGQSTVRLQLNNLRAEDTGTYYCAKSSYCTAWTGCDVYAGGSIDAWGHGTEVIVSS VL: ALTQPSSVSATPGGTVEITCSGDSSDDGSYYYGWYQQKSPGSAPVTVIYSNDKRPSSIPSRFSGSASGSTATLTITGVQADDEAVYFCGSYDSSTGIFGAGTTLTVL	81

Target: T2, Claudin 6 (human)
Experiment: binding assay of the 13th table, method not described

Binder	EC50 [nM]
IM-35-N1F09-1HA (antibody, V domains shown) VH: EVQLLESGGGLVQPGGSLRLSCAASGFTFSSYGMSWVRQAPGKGLEWVAGIGSSGIYTHYADSVKGRFTISRDNSKNTLYLQMNSLRAEDTAVYYCAKSPGDSDWCGWAGYGIYSCRVAGFIDAWGQGTLVTVSS VL: SYELTQPPSVSVSPGQTARITCSGGYNGHYGWYQQKPGQAPVLVIYGTNKRPSGIPERFSGSSSGTTVTLTISGVQAEDEADYYCGGYDSSAGIFGGGTKLTVL	< 4
IM-271-1HBF (antibody, V domains shown, also called CH-HAMF5-1HBF) VH: EVQLLESGGGLVQPGGSLRLSCAASGFTFSSYAMNWVRQAPGKGLEWVAGISSSGRYTGYADSVKGRFTISRDNSKNTLYLQMNSLRAEDTAVYYCAKSVGSGVSWSGYVATSIDAWGQGTLVTVSS VL: SYELTQPPSVSVSPGQTARITCSAGSGLYGWYQQKPGQAPVLVIYGTNKRPSGIPERFSGSSSGTTVTLTISGVQAEDEADYYCGSADSSTNAGIFGGGTKLTVL	< 4
IM-271-1HAQ (antibody, V domains shown, also called CH-HAMF5-1HAQ) VH: EVQLLESGGGLVQPGGSLRLSCAASGFTFSSYAMSWVRQAPGKGLEWVAGISSSGRYTGYADSVKGRFTISRDNSKNTLYLQMNSLRAEDTAVYYCAKSVGNGNSWSGYVATSIDAWGQGTLVTVSS VL: SYELTQPPSVSVSPGQTARITCSGGSGSYGWYQQKPGQAPVLVIYGTNKRPSGIPERFSGSSSGTTVTLTISGVQAEDEADYYCGSADSSTNAGIFGGGTKLTVL	< 4
IM-271-1HFB (antibody, V domains shown, also called CH-HAMF5-1HFB) VH: EVQLLESGGGLVQPGGSLRLSCAASGFTFSSYAMNWVRQAPGKGLEWVAGISSSGRYTGYADSVKGRFTISRDNSKNTLYLQMNSLRAEDTAVYYCAKSMGSGVSWSGYVATSIDAWGQGTLVTVSS VL: SYELTQPPSVSVSPGQTARITCSGGSGSYGWYQQKPGQAPVLVIYGTYKRPSGIPERFSGSSSGTTVTLTISGVQAEDEADYYCGSADSSTNAGIFGGGTKLTVL	< 4
IM-271-1HHP (antibody, V domains shown, also called CH-HAMF5-1HHP) VH: EVQLLESGGGLVQPGGSLRLSCAASGFTFSSYAMNWVRQAPGKGLEWVAGISSSGRYTGYADSVKGRFTISRDNSKNTLYLQMNSLRAEDTAVYYCAKSVGSGVSWSGYVATSLDVWGQGTLVTVSS VL: SYELTQPPSVSVSPGQTARITCSGGSGSYGWYQQKPGQAPVLVIYGTYKRPSGIPERFSGSSSGTTVTLTISGVQAEDEADYYCGSADSSTNAGIFGGGTKLTVL	< 4
IM-271-1HBG (antibody, V domains shown, also called CH-HAMF5-1HBG) VH: EVQLLESGGGLVQPGGSLRLSCAASGFTFSSYAMNWVRQAPGKGLEWVAGISSSGRYTGYADSVKGRFTISRDNSKNTLYLQMNSLRAEDTAVYYCAKSMGSGVSWSGYVATSIDAWGQGTLVTVSS VL: SYELTQPPSVSVSPGQTARITCSAGSGLYGWYQQKPGQAPVLVIYGTNKRPSGIPERFSGSSSGTTVTLTISGVQAEDEADYYCGSADSSTNAGIFGGGTKLTVL	< 4
IM-271-1HEP (antibody, V domains shown, T0003 prints the label CH-HAMF5-MEP; Tied by the suffix only; also called CH-HAMF5-1HEP; CH-HAMF5-MEP) VH: EVQLLESGGGLVQPGGSLRLSCAASGFTFSSYAMNWVRQAPGKGLEWVAGISSSGRYTGYADSVKGRFTISRDNSKNTLYLQMNSLRAEDTAVYYCAKSVGSGVSWSGYVATSLDAWGQGTLVTVSS VL: SYELTQPPSVSVSPGQTARITCSAGSGLYGWYQQKPGQAPVLVIYGTNKRPSGIPERFSGSSSGTTVTLTISGVQAEDEADYYCGSADSSTNAGIFGGGTKLTVL	< 4
IM-271-1HHR (antibody, V domains shown, also called CH-HAMF5-1HHR) VH: EVQLLESGGGLVQPGGSLRLSCAASGFTFSSYAMNWVRQAPGKGLEWVAGISSSGRYTGYADSVKGRFTISRDNSKNTLYLQMNSLRAEDTAVYYCAKSMGSGVSWSGYVATSLDVWGQGTLVTVSS VL: SYELTQPPSVSVSPGQTARITCSGGSGSYGWYQQKPGQAPVLVIYGTYKRPSGIPERFSGSSSGTTVTLTISGVQAEDEADYYCGSADSSTNAGIFGGGTKLTVL	< 4
IM-271-1HGT (antibody, V domains shown, also called CH-HAMF5-1HGT) VH: EVQLLESGGGLVQPGGSLRLSCAASGFTFSSYAMNWVRQAPGKGLEWVAGISSSGRYTGYADSVKGRFTISRDNSKNTLYLQMNSLRAEDTAVYYCAKSVGSGVSWSGYVATSLDVWGQGTLVTVSS VL: SYELTQPPSVSVSPGQTARITCSAGSGLYGWYQQKPGQAPVLVIYGTNKRPSGIPERFSGSSSGTTVTLTISGVQAEDEADYYCGSNDASTNAGIFGGGTKLTVL	< 4
IM-271-1HFJ (antibody, V domains shown, also called CH-HAMF5-1HFJ) VH: EVQLLESGGGLVQPGGSLRLSCAASGFTFSSYAMNWVRQAPGKGLEWVAGISSSGRYTGYADSVKGRFTISRDNSKNTLYLQMNSLRAEDTAVYYCAKSMGSGVSWSGYVATSIDVWGQGTLVTVSS VL: SYELTQPPSVSVSPGQTARITCSAGSGLYGWYQQKPGQAPVLVIYGTNKRPSGIPERFSGSSSGTTVTLTISGVQAEDEADYYCGSADSSTNAGIFGGGTKLTVL	< 4
IM-35-N2H07-1HA (antibody, V domains shown) VH: EVQLLESGGGLVQPGGSLRLSCAASGFTFSGYAMSWVRQAPGKGLEWVAGIYSSGSYTFYADSVKGRFTISRDNSKNTLYLQMNSLRAEDTAVYYCAKGTGYCDWSGWCYSGAANIDAWGQGTLVTVSS VL: SYELTQPPSVSVSPGQTARITCSGGSGSYGYYGWYQQKPGQAPVLVIYGTNKRPSGIPERFSGSSSGTTVTLTISGVQAEDEADYYCGSEDSSSGAGIFGGGTKLTVL	< 4

Target: T2, Claudin 6 (human)
Experiment: flow cytometry, 66 nM MAb on HEK-293T cells expressing claudin6
Method: Expression and Binding of claudin6 MAbs. Claudin 6 MAbs produced using their natural light chain, or produced using a different light chain. Yield represents the preparation of the purified MAb and ug of protein resulting from the preparation. Binding represents 66 nM of the indicated MAb binding to HEK-293T cells expressing the target claudin6. The Controls represents the same MAbs staining HEK-293T cells not transfectedwith claudin6. Staining was detected by flow cytometry (geometric mean fluorescence). N/A, not available.

Binder	Binding (geometric mean fluorescence)
IM180 (antibody, V domains shown, Produced with its natural light chain) VH: EVQLLESGGGLVQPGGSLRLSCAASGFDFSSYAMNWVRQAPGKGLEWVAGIGSTGSSTGYADSVKGRFTISRDNSKNTLYLQMNSLRAEDTAVYYCAKSVGNGNSWSGYIATSIDAWGQGTLVTVSS VL: SYELTQPPSVSVSPGQTARITCSGGSSGYGWYQQKPGQAPVLVIYSNDKRPSGIPERFSGSSSGTTVTLTISGVQAEDEADYYCGSTDNSYVGIFGGGTKLTVL	46900 geometric mean fluorescence
IM180 w/ F10h cLC (antibody, V domains shown, IM180 heavy chain paired with the common light chain F10h) VH: EVQLLESGGGLVQPGGSLRLSCAASGFDFSSYAMNWVRQAPGKGLEWVAGIGSTGSSTGYADSVKGRFTISRDNSKNTLYLQMNSLRAEDTAVYYCAKSVGNGNSWSGYIATSIDAWGQGTLVTVSS VL: SYELTQPPSVSVSPGQTARITCSGGYNGHYGWYQQKPGQAPVLVIYSNNQRPSGIPERFSGSSSGTTVTLTISGVQAEDEADYYCGGYDSSAGIFGGGTKLTVL	10100 geometric mean fluorescence
IM271 w/ F10h cLC (antibody, V domains shown, IM271 heavy chain paired with the common light chain F10h) VH: EVQLLESGGGLVQPGGSLRLSCAASGFTFSSYAMSWVRQAPGKGLEWVAGISSSGRYTGYADSVKGRFTISRDNSKNTLYLQMNSLRAEDTAVYYCAKSVGNGNSWSGYIATSIDAWGQGTLVTVSS VL: SYELTQPPSVSVSPGQTARITCSGGYNGHYGWYQQKPGQAPVLVIYSNNQRPSGIPERFSGSSSGTTVTLTISGVQAEDEADYYCGGYDSSAGIFGGGTKLTVL	160000 geometric mean fluorescence
